The results in this text go back to patent publication EP1188828A1.

In assay [1] the target is rat Reg-binding protein (rat Reg receptor, rat homologue of EXTL3/EXTR1) with N-terminal HA tag (rat). Put plainly: displacement of ^125I-labeled rat Reg protein (competitor tracer) from CHO cells stably expressing rat Reg receptor.
The target is the same in assay [2]. Put plainly: cell-based or functional assay.
For assay [3] the target is unchanged. Kind of assay: displacement of ^125I-labeled rat Reg protein from CHO cells stably expressing rat Reg receptor.
The target is the same in assay [4]. Put plainly: radioligand binding on CHO cells stably expressing HA-tagged rat Reg receptor.

B1: human REG protein (REG Iα) (ligand, UniProt P05451 23-166, looked up)
chain: QEAQTELPQARISCPEGTNAYRSYCYYFNEDRETWVDADLYCQNMNSGNLVSVLTQAEGAFVASLIKESGTDDFNVWIGLHDPKKNRRWHWSSGSLVSYKSWGIGAPSSVNPGYCVSLTSSTGFQKWKDVPCEDKFSFVCKFKN
In the case of B1, the inhibition constant Ki in assay [1] amounted to 7.41 nM.

B2: rat Reg protein (Reg I) (ligand, UniProt P10758 22-165, looked up)
chain: QEAEEDLPSARITCPEGSNAYSSYCYYFMEDHLSWAEADLFCQNMNSGYLVSVLSQAEGNFLASLIKESGTTAANVWIGLHDPKNNRRWHWSSGSLFLYKSWDTGYPNNSNRGYCVSVTSNSGYKKWRDNSCDAQLSFVCKFKA
modifications: [^125I] label by Bolton-Hunter reagent where used as the labelled tracer; unlabeled where used as competitor
Consider B2, for which, in assay [2], the BrdU incorporation of CHO cell line #3 stably expressing the Reg receptor is 4.01 nM and the BrdU incorporation of CHO cell line #22 stably expressing the Reg receptor is 1.11 nM. This molecule also displayed a Ki in assay [3] of 1.61 nM. This molecule registered a dissociation constant (Kd) in assay [4] of 4.41 nM.
